Measurements from publication PMC5216073.

Columns and labels:
[1] = biological target: CtYpt7 wild type (Chaetomium thermophilum Ypt7) (Chaetomium thermophilum)
[2] = biological target: CtYpt7-F33A (Chaetomium thermophilum)
[3] = biological target: CtYpt7-K38A (Chaetomium thermophilum)

kcat/KM of MC1-stimulated exchange of MANT-GDP for GTP on Ypt7 (fluorescence GEF assay, 0-2.0 μM CtMC1core, 25 °C) [1]: 23000 M⁻¹ s⁻¹ | kcat/KM of MC1-stimulated nucleotide exchange (fluorescence GEF assay, rates against CtMC1core concentration) [2]: 35000 M⁻¹ s⁻¹ | kcat/KM of MC1-stimulated nucleotide exchange (fluorescence GEF assay, rates against CtMC1core concentration) [3]: 2600 M⁻¹ s⁻¹
Substance: CtMC1core complex (CtMon1 195-355 with CtCcz1 1-249), both expression tags retained, as used in the GEF assay
